Results as given in a protein production outcome set (Wang et al. 2014).

Assay: label from the status in PepcDB records

| Sequence | protein production |
| --- | --- |
| MYQTQTNKEKFVLFLKLFIPVLIYQFANFSATFIDSVMTGQYSQLHLAGVSTASNLWTPFFALLVGMISALVPVVGQHLGRGNKEQIRTEFHQFLYLGLILSLILFLIMQFIAQPVLGSLGLEDEVLAVGRGYLNYMLIGIMPLVLFSICRSFFDALGLTRLSMYLMLLILPFNSFFNYMLIYGKFGMPRLGGAGAGLGTSLTYWAIFIVIIIVMSLHPQIKTYHIWTLERIKAPLIIEDIRLGLPIGLQIFAEVAIFAVVGLFMAKFSSIIIAAHQAAMNFSSLMYAFPLSISTALAITISFEVGAERFQDANTYSRIGRLTAVGITSGTLLFLFLFRENVAAMYNSDPHFVAITAQFLTYSLFFQFADAYAAPVQGILRGYKDTTKPFMIGAGSYWLCALPLAVILEKNSQLGPFAYWIGLITGIFVCGLFLNQRLQKIKKLYY | failed |
| MYRIIEAPNSGKYPFSHSLLIGKSCIIDTGSGEALAPLRVDCVLNTHWHEDHIAMNSIGRKVLAHPLDAEAIESYEEFRRRYGIGDSVRLFINFEFGQVDDVFEDGEQLEFEGVSVEVIHTPGHSAGHCCFVINNEAVFLGDIDLTSFGPWYGCLDCDVDDFVRSVKKMMREVERRDIEIAIPSHGRPVYGKEEIIGAMREYLKKIFERDKAIRELVRLGVDPVGKGIIYRKIPEPREIYLHFEKIMVEKHLTTSLDEFCLDLEHHHHHH | failed |
| MYRLLALFVPPEAAFRTGRGFSFDAGEVTGAIGDSVTVLPLVVALGLLTPASLPHLLAGFGVFQVIWGLYYGVPLSVEPMKALAGLAIAGTLSHGGLVAAGLVAGGVLLVAGRTGSLSWIQQFVGEPVVRGVQFAVACLLVVAAVDLVAGSVGIAAAGAGLALVVALVSRNAVALVVLAVGAVWAATAGGIPAPAAPSLELFPAGGPTLSVGAIEGLLAQLAMTVGNAAVATSLLLSDLYDAEISPDRLADSMGAMNLAAVPLGAVPMCHGSGGLAGKHAFGARTGTANLVAGGFYAGLALVAGLLAAFPMALLGVLLVVVAASLSRVAFTKTDRRLFVAGVGGLAVVTNVAVAFVAATLWWQLRG | failed |
| MYRMDKYTIGLIRVITLEDKEILNLHGRIIESAFPELKVVSRCIEDQPKGIYNEETEREAEPKIIRLAKEFEREGVDAIIISCAADPAVEKVRKLLSIPVIGAGSSVSALALAYGRRVGVLNLTEETPKVIRSILGNNLIAEDHPSGVSNTLDLLTDWGRREVINAAKRLKEKGVEVIALGCTGMSTIGIAPVLEEEVGIPVIDPVIASGAVALHALKRREVKRFEGR | not failed |
| MYRTTGPALRPGGFELTDWAVEHCRFQAGDRILDVGCGRGATVDRLRSHYHLEAYGIDPSATLLTLGQETYPDLPLSKARGEDIPFTNSCFDGVFVECSLSLMTDPDQALSEIRRVLKVKGKLIIHDVYARNPQGTPDLRELSIGTCIRNALVKEDLEHGLESKGLRTIHWQDHSPLLNRLMMELIMTHGSMSAFWLKSTHCSADSNRVQAALKKAKVGYFQLIAEKEAEKEAEHCPVR | failed |
| MYSELKEGVNLYNKKDYQEALVFFLSVSTEDVLIKIEINYYIGLIYSRLSEYEQALEYLEQVVTASKDIAKVYQCRLILAFIYANTGRTRLAEFELSKLIEAGYESVQVFSSLAYVYYEHHEIEKAIDYYEKALKTAPENSTALNGLAYILAETDRDLTRSLLLCKKAVEKQPENPAYLDSMALIYHKMNLPSEAKSYITRAKEKLPDNKIILKHFEMISSDAREA | failed |
| MYTYSLLNLSHCRRQTRKKRKTDHTEGFLMEETKPKTVEDVETVDVYTAKGFLSTGHRYLDVRTNEEFAKSHVEEALNIPYMFKTDEGRVINPDFLSQVASVCKKDEHLIVACNAGGRGSRACVDLLNEGYDHVANMGGGYSAWVDAGFAGDKPPEDLKIACKFRPKEN | failed |
| MYYLFIFEMLWLLFVIVFVSFLSFSDFDRKKVNYFSVVIVGILLSITAGFRNVGGVDTDYAIYKNHYNGELGSYSYELFEPGYNTVVWLGNIVGLSFNLFVFILTSICLLLLLKLIFKYSKYPMLSVMIYLGTYFLFYNMVLMRQMVSVVMFLYCINYTIEKKYIKCLLCFLVGLSFHLSMIVFLPAFFVLRYFKLNIWNIIFILIIGVFLKIVGAINLVMFVGGVIESRMANYLAGDGFTLNIMEYIKMIIIICAILILFPKLIGDYFNEILIKSYCVFFILIFAFGDIEIFFRIAMYFDLVILFLIPILFDKISMTRFSRITIYTLVVIFFAFSFIYRVHNFDNGEFYQYKFFFLE | failed |
| NAVHFGAGNIGRGFIGKLLADAEVEVTFADVDVPLVDQLSHKQEYKVKVVGTECKIDTVTHVTAVNSASEDVIDRIVKTDLVTTAVGPNVLDIIAKTIAKGIAKRFEAGNDAPLNIIACENMVRGTTHLKGEVYKHLDKSLHAKADELVGFVDSAVDRIVPPAEAANDDPLEVTVESFSEWIVDEQQFKGDIPNIAGMEKTNN | not failed |
| NDALRVMAGDLQRSEEKFRSMTDAAHDAVFMLNNEGKIVYRNTAAETLFGFSREEYGDQLFWELISPEFADFNIHDVCEMMPDEALPDFNSETRVRQIEGLRKDGSLVPIEISRGCVHIESVHHTVVIARDIT | failed |
| NFATGTIATDPLNDSQVAVIASISKEMPGISISTSWDRKVLETSLSSIVGSVSSEKAGLPAEEAEAYLKKGYSLNDRVGTSYLEKQYEETLQGKRSVKEIHLDKYGNMESVDTIEEGSKGNNIKLTID | failed |
| NFNPPTRRNWESNYFGMPLQDLVTAEKPIPLFVEKCVEFIEDTGLCTERLYRVSGNKTDQENIQKQFVQDHNINLVSMEVTVNAVAGALKAFFADLPDPLIPYSLHPELLEAAKIPDKTERLHALKEIVKKFHPVNYDVFRYVITHLNRVSQQHKINLMTADNLSICFGQPLMRPDLKSMEFLSTTKIHQSVVETFIQQCQFFFYNGEIVETTNIVAPPPPSNPG | failed |
| NFVPGMEFSMADASSIAIIGGADGPTAIFLASQLSPDLLGAIAVAAYSYMALVPIIQPPIMKALTTPEERKIKMAQLRHVGKTEKIVFPLV | failed |
| NGSERGVLLSVIDRTEERHAKGLRRQVDHRFDKLVGTISEGVLLMDDTGVFRDGNEAAQNILGRSLDEIIGSRFDDDIWNGLREDGSPLPNVEFPFWRAYVEREPVQEEVMGVYPPDAPPRWIRVNAQPLFRSGQEAPYAVLVSFDDITDERLKEEALQTSRDLLSSVLSSSL | failed |
| NHSHSLAVIGSRNATQYTSQSLNYLFPSFRQLNMAIVSGLARGADSVAHQTALKYLLPTIGVLGFGHCYHYPKATLNLRTKVERNGLVISEYPPFSPISKHKFPERNRLISGLSRGVLITEAEERSGSQITIDCALEQNRNVYVLPGSMFNKMTKGNLRRINEGAQVVIDESSILYDYLF | failed |
| NIDLDVQNMAQNALKFGYDEIVKRDKDANLSTLNGAMVVVNHQSGDVLALVGGVDYEKSNYNRATQSMRQPGSSFKPFVYQVAINLGYSPMSEIADISRIFEGGAGNNEDWKPKNEGGKFLGLITLKEALTRSRNLATINLALDMGLDVLYSKLMEFGFKDIPPNLSIVLGSFGISPLEYSKFYTMFGNYGTIKDPQIIRQVQDKTGKTIMEFNSNERKVSDEAQSFLVLDMMRNVVEKGTGRNARVKDIEIAGKTGTTNKSVDAWFCGLTPEIEAIIWYGNDNNKPMRYTEGGARTAAPVFREFLTQYIEKFPDTTR | failed |

| Sequence | protein production |
| --- | --- |
| NIEQLSQSLEHMANQAATLDRQRGEHHVPLFDERLFSCRSRLLTPCVKEAKSTLDAIIREQNENKLTALRAEYLTERLVAQIGAIQREISTTKIRKNEIKHSSHFRKPINVLYQELAQHQEWARRLREMVLEKERAVETAPSFMRAEAQKVLLATEQRLARCEAALLKLENQITHREK | failed |
| NKKIYVGMTADIMHPGLIHIIHEATKYGDVIVGLLTDKAIAEHKRLPYLTYDQRKEVVENIKGVCEVVPQEDWSYVPNLEKLKPDYIIHGDDWKTGPLREVREQVFEVMNAQGGKVIEIPYTRGINSSSLDKDIKAIGT | failed |
| NKYNKIANELIKIIGEDNIISITHCATRLRVMVKDREIINDKKVEKVDEVKGVFFTSGQYQIILGTGIVNKVYAEVEKMGLKTLSKKEQDEL | not failed |
| NLNAIQNFGAMNILCTDKTGTLTCDKIVLEKYINADGSDDHSRRILRHAFLNSYFQTGLKNLMDKAILAHVREENLEHLTEGYTKIDEIPFDFSRRRMSVVIEDQQGKRQIITKGAVEEMLNICSHAEFNGQVYELTDKLRSKAKRISDDMNRNGMRVLAIAQKSFISKARDFAVTDEDEMVLIGYLAFLDP | failed |
| NLNSIQNFGAIDILCTDKTGTLTQDKVVLEYHLNVNGEDDTRVLRHAYLNSYFQTGYKNLMDLAIIHKTEEEEAADSRLIDLSENYVKVDEIPFDFTRRRLTTVVQDNKGKTQMVTKGAVEEMLSICAFAECNGGVQPLTDDVRYRILETVDNLNDKGFRVLAIAQKSNPSPIGAFGVKDECDMVLIGYLAFLDP | failed |
| NNLFVYCEIEDGIVADVSLELLTKGRSLANQLGCQLEAVVAGTGLKDIEKQILPYGVDKLHVFDGEGLYPYTSLPHTSILVNLFKEEQPQICLMGATVIGRDLGPRVSSALTSGLTADCTSLEIGDHEDKKEGKVYKNLLYQIRPAFGGNIVATIVNPEHRPQMATVREGVMKKAILAADYKGEVIHHDVKKYVADTDYVVKVIERHVEKAKNN | failed |
| NQPKRALRYNKRFMGDRRYMSFWSWLTTGNFVNKEFSYYKVPMELDVFDQDAFAESGVPFYVVATDIKTGKPDYIKIDHVFEQMEALRASSALPLVSEIVEYKGKRYMDGGLADSLPI | failed |
| NQTRLNKLQKTLVDKQIDFAFISDYKTIQYITGFGSNPYERILAMIVFADKDPFIFAPALEVEVVKSVGWPYDLYGYQDNEDGLEMIYDHIKERSANPKKIATEQGNLTLSRFNRLQAAFPDADYSFNLTPVIEHQR | not failed |
| NRWITRPKFTHFDLHTLNWDLCLTQANHKSGLALDMLRMLLDSLPQTVSAIEAALSQNDQVTMLSTIHKLHGASCYCGVPTTQRLCQEIESALKREARVEDLEPEILELLDELTKVESAAKQVLSQLSAEITDDQKNGLL | failed |
| NSESKSTPKRLHVSNIPFRFRDPDLRQMFGQFGKILDVEIIFNERGSKGFGFVTFENSADADRAREKLHGTVVEGRKIEVNNATARVMTN | not failed |
| NYDPFVRHSVTVKADRKTAFKTFLEGFPEWWPNNFRTTKVGAPLGVDKKGGRWYEIDEQGEEHTFGLIRKVDEPDTLVIGWRLNGFGRIDPDNSSEFTVTFVADGQKKTRVDVEHTHFDRMGTKHAKRVRNGMDKGWPTILQSFQDKIDEEGAKK | not failed |
| PAIDYKTAFHLAPIGLVLSRDRVIEDCNDELAAIFRCARADLIGRSFEVLYPSSDEFERIGERISPVMIAHGSYADDRIMKRAGGELFWCHVTGRALDRTAPLAAGVWTFEDLSATRRVA | not failed |
| PDGPTQLRALNLTEGFAVLHWKPPQNPVDTYDIQVTAPGAPPLQAETPGSAVDYPLHDLVLHTNYTATVRGLRGPNLTSPASITFTTGLEAPRDLEAKEVTP | not failed |
| PDHGKAEWFRGADGATLRAATFFPAGPARGSVVLSPGRSEPLEKYFEVVDDLLARDFAVLLHDWRGQGLSARALPDRLKGHARGFKTFVSDYEALLDAFETRMPKPWIAVSHSMGGCLTTLALAQGETRFAAAVLSAPMLGLNTAGVPPWLARPLAFVMSRVGLAGEYVQTPYDPLTQTFQGDGLTHDETRYDRYQAQLRAHPEIALGGMTWGWADFAISACAWLRRSKSVEAIAIPVIILGAELDNRVLNADSESIARRIPKGRYVEVPGAFHEILVETDARRALFWQAFDE | failed |
| PDIGTFTVRPLDPTRDAELLHGWVTHPKSAFWMMQEARLHDVEREYMAIAASEYHDAFLGLLDDEPVFLMEKYDPAHVELVGLYEPEPGDVGMHFLVAPTDTPVHGFTRAVITAVMEHLFADPATRRVVVEPDVGNKAVHALNEAVG | failed |
